Measurements published in patent publication US20250230251A1 (Bristol-Myers Squibb, published 2025).
Substitutions are numbered along the chain they refer to.

Tests used:
huIL-18Rβ-HisAvi [1] = biological target: T1, huIL-18Rβ-HisAvi (human, UniProt O95256 20-356, biotinylated in the Octet blocking assay); experiment: SPR Biacore T200, mAb captured on anti-human Fc, huIL-18Rβ-HisAvi as analyte, PBST pH 6.0, 37 °C, 1:1 Binding fit
T1 construct: Soluble analyte in all SPR runs; captured on streptavidin sensors in the Octet assay; also called human IL-18Rβ; human IL-18Rβ-Avi-His
T1 sequence: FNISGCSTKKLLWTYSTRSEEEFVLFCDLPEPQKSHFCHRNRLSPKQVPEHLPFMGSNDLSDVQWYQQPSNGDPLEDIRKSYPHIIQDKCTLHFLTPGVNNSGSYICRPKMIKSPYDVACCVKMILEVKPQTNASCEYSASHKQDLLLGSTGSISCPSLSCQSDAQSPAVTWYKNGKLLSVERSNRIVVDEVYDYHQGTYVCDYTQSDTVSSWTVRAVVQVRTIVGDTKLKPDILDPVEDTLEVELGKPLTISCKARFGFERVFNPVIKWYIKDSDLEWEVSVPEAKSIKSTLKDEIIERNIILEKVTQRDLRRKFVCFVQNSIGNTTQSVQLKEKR

huIL-18Rβ-HisAvi [2] = biological target: T1, huIL-18Rβ-HisAvi; experiment: SPR Biacore T200, mAb captured on anti-human Fc, huIL-18Rβ-HisAvi as analyte, PBST pH 5.5, 37 °C, 1:1 Binding fit
huIL-18Rβ-HisAvi [3] = biological target: T1, huIL-18Rβ-HisAvi; experiment: SPR T200, mAb on anti-hFc, 37C, pH 7; control
human IL-18Rβ on cells [4] = biological target: T2, human IL-18Rβ on cells (human, UniProt O95256 20-599); experiment: cell-based or functional assay
T2 sequence: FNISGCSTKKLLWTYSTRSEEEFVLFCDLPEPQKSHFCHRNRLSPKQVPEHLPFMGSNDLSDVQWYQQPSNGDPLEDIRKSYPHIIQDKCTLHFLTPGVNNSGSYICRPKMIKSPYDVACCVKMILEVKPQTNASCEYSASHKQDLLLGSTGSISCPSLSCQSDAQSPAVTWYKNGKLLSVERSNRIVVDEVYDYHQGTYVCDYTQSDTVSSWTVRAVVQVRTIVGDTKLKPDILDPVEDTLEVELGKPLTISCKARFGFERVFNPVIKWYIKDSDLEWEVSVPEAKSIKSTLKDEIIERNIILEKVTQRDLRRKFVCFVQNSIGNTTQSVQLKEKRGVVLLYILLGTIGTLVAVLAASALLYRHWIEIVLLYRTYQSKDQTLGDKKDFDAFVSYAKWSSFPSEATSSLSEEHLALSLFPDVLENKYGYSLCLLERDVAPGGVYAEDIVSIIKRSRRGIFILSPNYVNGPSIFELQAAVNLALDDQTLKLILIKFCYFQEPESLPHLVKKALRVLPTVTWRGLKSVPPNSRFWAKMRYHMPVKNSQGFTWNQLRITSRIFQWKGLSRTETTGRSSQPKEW

[5] = biological target: T3, cynomolgus monkey IL-18Rβ on cells (cynomolgus monkey, UniProt A0A7N9D6S0 20-598); experiment: cell-based or functional assay
T3 sequence: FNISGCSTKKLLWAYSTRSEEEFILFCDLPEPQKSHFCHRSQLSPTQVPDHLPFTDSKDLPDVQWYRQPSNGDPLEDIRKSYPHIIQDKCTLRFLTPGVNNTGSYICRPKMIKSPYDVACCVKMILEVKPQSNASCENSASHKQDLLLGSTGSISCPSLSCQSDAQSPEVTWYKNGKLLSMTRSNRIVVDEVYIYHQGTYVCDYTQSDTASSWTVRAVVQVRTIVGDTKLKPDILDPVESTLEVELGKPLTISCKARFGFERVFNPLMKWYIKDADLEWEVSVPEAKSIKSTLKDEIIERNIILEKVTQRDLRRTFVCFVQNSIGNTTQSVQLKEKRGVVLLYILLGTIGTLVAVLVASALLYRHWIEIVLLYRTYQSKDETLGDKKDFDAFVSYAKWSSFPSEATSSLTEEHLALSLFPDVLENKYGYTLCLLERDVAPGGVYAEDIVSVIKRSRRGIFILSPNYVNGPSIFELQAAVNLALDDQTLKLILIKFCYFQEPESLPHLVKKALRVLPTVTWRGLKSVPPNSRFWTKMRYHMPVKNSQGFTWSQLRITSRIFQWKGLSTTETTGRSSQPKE

human IL-18Rβ on cells [6] = biological target: T2, human IL-18Rβ on cells; experiment: cell-based or functional assay; remark: listed apart in the source
huIL-18Rβ-HisAvi [7] = biological target: T1, huIL-18Rβ-HisAvi; experiment: SPR T200, pH 7; sample 2 w 40C
huIL-18Rβ-HisAvi [8] = biological target: T1, huIL-18Rβ-HisAvi; experiment: SPR T200, pH 7; sample 4 w 40C
huIL-18Rβ-HisAvi [9] = biological target: T1, huIL-18Rβ-HisAvi; experiment: SPR T200, pH 7; control

B1: P20 (antibody, human IgG1, kappa)
heavy: QVQLQQSGPGLVKPSETLSLTCTVSGGSINNYYWSWIRQPPGKGLEWIGYIFYSGTTNYNPSLKSRVTISVDTSKNQFSLKLSSVTAADTAVYYCARDVGIAARNSYYYVMDVWGQGTTVTVSSASTKGPSVFPLAPSSKSTSGGTAALGCLVKDYFPEPVTVSWNSGALTSGVHTFPAVLQSSGLYSLSSVVTVPSSSLGTQTYICNVNHKPSNTKVDKRVEPKSCDKTHTCPPCPAPEAEGAPSVFLFPPKPKDTLMISRTPEVTCVVVDVSHEDPEVKFNWYVDGVEVHNAKTKPREEQYNSTYRVVSVLTVLHQDWLNGKEYKCKVSNKALPAPIEKTISKAKGQPREPQVYTLPPSREEMTKNQVSLTCLVKGFYPSDIAVEWESNGQPENNYKTTPPVLDSDGSFFLYSKLTVDKSRWQQGNVFSCSVMHEALHNHYTQKSLSLSPG
light: AIQLTQSPSSLSASVGDRVTITCRASQGISSALAWYQQKPGKAPKFLIYDASSLESGVPSRFSGSGSGTDFTLTISSLQPEDFATYYCQQFNSYPITFGQGTRLEIKRTVAAPSVFIFPPSDEQLKSGTASVVCLLNNFYPREAKVQWKVDNALQSGNSQESVTEQDSKDSTYSLSSTLTLSKADYEKHKVYACEVTHQGLSSPVTKSFNRGEC
notes: Human IgG
- apparent Kd (pooled screen) (huIL-18Rβ-HisAvi [1]): 2.35 nM
- apparent koff (pooled screen) (huIL-18Rβ-HisAvi [1]): 0.000329 s⁻¹
- apparent kon (pooled screen) (huIL-18Rβ-HisAvi [1]): 140000 M⁻¹ s⁻¹
- apparent Kd (pooled screen) (huIL-18Rβ-HisAvi [2]): 2.56 nM
- apparent koff (pooled screen) (huIL-18Rβ-HisAvi [2]): 0.000282 s⁻¹
- apparent kon (pooled screen) (huIL-18Rβ-HisAvi [2]): 110000 M⁻¹ s⁻¹
- apparent Kd (pooled screen) (huIL-18Rβ-HisAvi [3]): 0.18 nM
- apparent koff (pooled screen) (huIL-18Rβ-HisAvi [3]): 5.2e-05 s⁻¹
- apparent kon (pooled screen) (huIL-18Rβ-HisAvi [3]): 280000 M⁻¹ s⁻¹

B2: P20-V1 (antibody, human IgG1, kappa, V domains shown)
VH: QVQLQESGPGLVKPSETLSLTCTVSGGSINNYYWSWIRQPPGKGLEWIGYIFYSGTTNYNPSLKSRVTISVDTSKNQFSLKLSSVTAADTAVYYCARDVGIAARNSYYYVMDVWGQGTTVTVSS
VL: AIQLTQSPSSLSASVGDRVTITCRASQGISSALAWYQQKPGKAPKFLIYEASSLESGVPSRFSGSGSGTDFTLTISSLQPEDFATYYCQQFNSYPITFGQGTRLEIKR
notes: Variant of P20
- IC50, IL-18-mediated IFNg release, KG-1 cells, Average (human IL-18Rβ on cells [4]): 2.01 nM
- IC50, IL-18-mediated IFNg release, KG-1 cells, Exp. #1 (human IL-18Rβ on cells [4]): 0.96 nM
- IC50, IL-18-mediated IFNg release, KG-1 cells, Exp. #2 (human IL-18Rβ on cells [4]): 2.1 nM
- IC50, IL-18-mediated IFNg release, KG-1 cells, Exp. #3 (human IL-18Rβ on cells [4]): 1.46 nM
- IC50, IL-18-mediated IFNg release, KG-1 cells, Exp. #4 (human IL-18Rβ on cells [4]): 1.2 nM
- IC50, IL-18-mediated IFNg release, KG-1 cells, Exp. #5 (human IL-18Rβ on cells [4]): 2.94 nM
- IC50, IL-18-mediated IFNg release, KG-1 cells, Exp. #6 (human IL-18Rβ on cells [4]): 2.8 nM
- IC50, IL-18-mediated IFNg release, KG-1 cells, Exp. #7 (human IL-18Rβ on cells [4]): 2.6 nM
- IC50, IFNg, cyno whole blood IL-18+IL-12, Average [5]: 4.3 nM
- IC50, IFNg, cyno whole blood IL-18+IL-12, donor B7619 (f) [5]: 5.1 nM
- IC50, IFNg, cyno whole blood IL-18+IL-12, donor B8476 (m) [5]: 3.3 nM
- IC50, IFNg, cyno whole blood IL-18+IL-12, donor B9301 (f) [5]: 4.7 nM
- IC50, IFNg, cyno whole blood IL-18+IL-12, donor B9313 (m) [5]: 2.4 nM
- IC50, IFNg, cyno whole blood IL-18+IL-12, donor B9447 (m) [5]: 5.1 nM
- IC50, IFNg, cyno whole blood IL-18+IL-12, donor B9496 (m) [5]: 1.9 nM
- IC50, IFNg, cyno whole blood IL-18+IL-12, donor B21333 (f) [5]: 1.8 nM
- IC50, IFNg, cyno whole blood IL-18+IL-12, donor B21374 (f) [5]: 2.5 nM
- IC50, IFNg, cyno whole blood IL-18+IL-12, donor B21394 (f) [5]: 6 nM
- IC50, IFNg, cyno whole blood IL-18+IL-12, donor B21411 (f) [5]: 5.1 nM
- IC50, IFNg, cyno whole blood IL-18+IL-12, donor B21435 (f) [5]: 10.5 nM
- IC50, IFNg, cyno whole blood IL-18+IL-12, donor B21438 (f) [5]: 2.2 nM
- IC50, IFNg, cyno whole blood IL-18+IL-12, donor B22017 (f) [5]: 5.7 nM
- IC50, IFNg, cyno whole blood IL-18+IL-12, donor B22187 (m) [5]: 3.9 nM
- IC50, IFNg, human whole blood IL-18+IL-12, Average (human IL-18Rβ on cells [6]): 2.28 nM
- IC50, IFNg, human whole blood IL-18+IL-12, donor C121 (human IL-18Rβ on cells [6]): 3.6 nM
- IC50, IFNg, human whole blood IL-18+IL-12, donor C121 (second row) (human IL-18Rβ on cells [6]): 1.3 nM
- IC50, IFNg, human whole blood IL-18+IL-12, donor C175 (human IL-18Rβ on cells [6]): 0.5 nM
- IC50, IFNg, human whole blood IL-18+IL-12, donor C237 (human IL-18Rβ on cells [6]): 2.74 nM
- IC50, IFNg, human whole blood IL-18+IL-12, donor C238 (human IL-18Rβ on cells [6]): 1.35 nM
- IC50, IFNg, human whole blood IL-18+IL-12, donor C249 (human IL-18Rβ on cells [6]): 4.29 nM
- IC50, IFNg, human whole blood IL-18+IL-12, donor C252 (human IL-18Rβ on cells [6]): 3.23 nM
- IC50, IFNg, human whole blood IL-18+IL-12, donor C253 (human IL-18Rβ on cells [6]): 1.24 nM
- Kd (huIL-18Rβ-HisAvi [7]): 0.13 nM
- koff (huIL-18Rβ-HisAvi [7]): 3.7e-05 s⁻¹
- kon (huIL-18Rβ-HisAvi [7]): 290000 M⁻¹ s⁻¹
- Kd (huIL-18Rβ-HisAvi [8]): 0.5 nM
- koff (huIL-18Rβ-HisAvi [8]): 0.00014 s⁻¹
- kon (huIL-18Rβ-HisAvi [8]): 290000 M⁻¹ s⁻¹

B3: P21 (antibody, human IgG1, kappa, V domains shown)
VH: QVQLQQSGPGLVKPSETLSLTCTVSGGSISNYYWTWIRQPPGKGLEWIGYISDSGSTNYNPSLKSRVTISVDTSKNQFSLKLSSVTAADTAVYYCARETIVVRGFYFYVMDVWGQGTTVTVSS
VL: B2 VL with K39R, F46L, E50D, S53N, L54W, I96W, R103K, L104V
notes: Human IgG
- Kd (huIL-18Rβ-HisAvi [9]): 0.2 nM
- koff (huIL-18Rβ-HisAvi [9]): 7e-05 s⁻¹
- kon (huIL-18Rβ-HisAvi [9]): 350000 M⁻¹ s⁻¹
